Source: US20140096274A1 (published 2014)
Positions count from the first letter of the chain named.

T1: murine RANK-Fc (mouse, UniProt O35305 31-214)
T1 construct: also called mRANK-Fc; mRANK-FC; not shown: Fc part of the bought fusion; not described
T1 sequence (looked up): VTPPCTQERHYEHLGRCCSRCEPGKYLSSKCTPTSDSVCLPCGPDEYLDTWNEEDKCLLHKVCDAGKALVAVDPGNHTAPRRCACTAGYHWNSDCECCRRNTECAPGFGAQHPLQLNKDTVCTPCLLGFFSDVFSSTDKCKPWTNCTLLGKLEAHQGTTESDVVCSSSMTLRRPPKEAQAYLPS

B1: murine RANKL heterodimeric variant mD1 (mouse Dimer 1) (ligand)
chain 1: EAQPFAHLTINAASIPSGSHKVTLSSWYHDRGWADISNMTLSNGKLRVNQDGFYYLYANISFRHHETSGSVPTDYLQLMVYVVKTSIKIPSSHNLMKGGSTKNWSGNSEFHYYSINVGGFFKLRAGEEISIQVSNPSLLDPDQDATYFGAFKVQDID
chain 2: B1 chain 1 with D35K, F53Y, S61C, K97D, Y112F, F120Y
notes: range 160-316; Heterodimer of monomer A (His-tagged) and monomer B, co-expressed in E. coli; also called RANKL dimer 1; RANK-L Dimer 1; not shown: hexahistidine-tag fused to monomer A
B2: murine RANKL heterodimeric variant mD2 (mouse Dimer 2) (ligand)
chain 1: B1 chain 1 with T9V, D35K, S70K
chain 2: B1 chain 1 with T9V, D35K, F53Y, S61C, S70K, K97D, Y112F, F120Y
notes: range 160-316; Heterodimer of monomer A (His-tagged) and monomer B, co-expressed in E. coli; also called RANKL dimer 2; dRANKL D2; not shown: hexahistidine-tag fused to monomer A
B3: human RANK-Fc (Fc fusion, UniProt Q9Y6Q6 30-212, looked up)
chain: IAPPCTSEKHYEHLGRCCNKCEPGKYMSSKCTTTSDSVCLPCGPDEYLDSWNEEDKCLLHKVCDTGKALVAVVAGNSTTPRRCACTAGYHWSQDCECCRRNTECAPGLGAQHPLQLNKDTVCKPCLAGYFSDAFSSTDKCRPWTNCTFLGKRVEHHGTEKSDAVCSSSLPARKPPNEPHVYLP
notes: also called hRANK-Fc; hRANK-FC; not shown: Fc part of the bought fusion; not described
B4: trimeric murine wild-type RANKL (R&D systems) (ligand, mouse, UniProt O35235 158-316, looked up)
chain: KPEAQPFAHLTINAASIPSGSHKVTLSSWYHDRGWAKISNMTLSNGKLRVNQDGFYYLYANICFRHHETSGSVPTDYLQLMVYVVKTSIKIPSSHNLMKGGSTKNWSGNSEFHFYSINVGGFFKLRAGEEISIQVSNPSLLDPDQDATYFGAFKVQDID
notes: Bought soluble trimeric protein; also called murine RANKL wt; mRANKL WT

How the values were obtained:
human RANK-Fc [1] = target: B3; test: SPR on hRANK-Fc, 37 C
Protocol: (§1) A Biacore experiment was performed to determine the kinetics of binding of the dimeric variants. hRANK-FC (Sigma) was captured in flow cell 2 at a level of 40 RU by a 60 s injection pulse of a 0.7 ug/ml hRANK-FC solution at a flow rate of 50 uL/min. Flow cell 1 served as reference cell. Subsequently, serial dilutions ranging from 562 nM to 100 pM of murine RANKL wt (R&D systems), or the purified RANKL dimers mD1 and mD2 were injected over both flow cells at 50 uL/min and 37° C. Binding was measured in real time. After each cycle the protein A surface was regenerated with a 30 s pulse of 10 mM Glycine pH 1.5. Kd values were calculated by fitting the data to a langmuir 1:1 binding model using the BIAevaluation software as described before (30). (Table 6 and FIG. 6).
(§2) Kinetic binding parameters were measured in real time using SPR. RANKL dimer binding curves were recorded using concentrations ranging from 100 pM to 562 nM dimer 1 (mD1) or dimer 2 (mD2), trimeric murine wild-type RANKL was used as a control. Measurements were performed at 37° C. The dissociation constants (KD) were determined by fitting the data to a Langmuir 1:1 interaction model. […] The binding off-rate constant (koff) of wild-type murine RANKL was ˜2 to 6 fold slower than for dimer 1 and dimer 2.

murine RANK-Fc [2] = target: T1, murine RANK-Fc; test: competitive ELISA on mRANK-Fc coated wells, competitor 2 nM flag-mRANKL WT, anti-flag detection
Protocol: The ability of mD1 and mD2 to compete with mRANKL WT for binding to mRANK-Fc was investigated using a competitive ELISA. Serial dilutions of mD1 or mD2 (0-400 nM) and a fixed concentration (2 nM) of flag-mRANKL WT were added to mRANK-Fc coated wells. A dose-dependent decrease of flag-mRANKL WT binding was observed upon increasing concentrations of mD1 and mD2 (FIG. 18A).

murine RANK-Fc [3] = target: T1, murine RANK-Fc; test: competitive ELISA on RANK-Fc coated wells, competitor flag-mRANKL (0-53 nM), anti-flag detection, global four parameter fit
Protocol: The ability of dimer 1 and dimer 2 to compete with wild-type murine RANKL for binding to mRANK was investigated using a competitive ELISA. […] After washing off unbound RANKL, mRANK bound flag-mRANKL was detected by an anti-flag antibody. A RANKL dimer concentration dependant decrease in mRANK binding and right shift in the EC₅₀ of flag-mRANKL was observed (FIGS. 7 and 18B), indicating a competitive inhibition based mechanism. IC₅₀ values for dimer 1 and dimer 2 were calculated to be 4 nM by a global fit of the individual dose response curves using a four parameter logistic model.

[4] = target: B1; test: SPR single cycle kinetics, hRANK-Fc captured at 20-40 RU, 1:1 fit
Protocol: (§3) Considering the high similarity between human RANKL and murine RANKL (>88%) the murine dimers were also tested for hRANK binding. Binding to hRANK-Fc and mRANK-Fc (both from R&D Systems) was recorded for five consecutive concentrations of murine flag RANKL WT, D1 (mD1) or D2 (mD2) (˜0.3-15 nM) using SPR with a single cycle kinetics based approach. The capture level of mRANK-Fc and hRANK-Fc was low (20-40 RU) in order to ensure 1:1 binding. Both WT and the D1 and D2 dimeric variants bound with high affinity towards the mRANK receptor and to the human RANK receptor (FIG. 16: Table 8).

[5] = target: B2; test: as above
Protocol: as §3

[6] = target: B1; test: SPR (Biacore), hRANK-Fc captured on protein A at 40 RU, 37 C, 1:1 Langmuir fit
Protocol: as §1, §2

[7] = target: B2; test: as above
Protocol: as §1, §2

human RANK-Fc [8] = target: B3; test: as above
Protocol: as §1, §2

murine RANK-Fc [9] = target: T1, murine RANK-Fc; test: ELISA, immobilized mRANK-Fc, % binding normalised to the highest concentration

Binder: B1
fold faster kon than wild-type murine RANKL (human RANK-Fc [1]): ~5 fold | IC50 (murine RANK-Fc [2]): 31000 pM | IC50 (murine RANK-Fc [3]): 4000 pM

Binder: B2
fold faster kon than wild-type murine RANKL (human RANK-Fc [1]): ~10 fold | IC50 (murine RANK-Fc [2]): 28000 pM | IC50 (murine RANK-Fc [3]): 4000 pM

Binder: B3
Kd [4]: 129 pM | koff [4]: 0.00108 s⁻¹ | kon [4]: 8.8e+06 M⁻¹ s⁻¹ | Kd [5]: 25.9 pM | koff [5]: 0.000173 s⁻¹ | kon [5]: 6.69e+06 M⁻¹ s⁻¹ | Ka [6]: 2.33e+10 M⁻¹ | Kd [6]: 44.6 pM | koff [6]: 0.000197 s⁻¹ | kon [6]: 4.52e+06 M⁻¹ s⁻¹ | Ka [7]: 1.8e+10 M⁻¹ | Kd [7]: 61.9 pM | koff [7]: 0.000554 s⁻¹ | kon [7]: 8.55e+06 M⁻¹ s⁻¹

Binder: B4
Ka (human RANK-Fc [8]): 9.23e+09 M⁻¹ | Kd (human RANK-Fc [8]): 110 pM | koff (human RANK-Fc [8]): 8.97e-05 s⁻¹ | kon (human RANK-Fc [8]): 827000 M⁻¹ s⁻¹ | EC50 (read off the curve) (murine RANK-Fc [9]): ~100 pM
